System: Escherichia coli TOP10
Assay: shrunken log2 fold change of peptide-encoding DNA abundance (4.5 h post-induction vs induction); higher = less antimicrobial activity (less host growth inhibition)
Conditions: time post-induction: 4.5 h; library: site-saturation at positions 5, 18, 19, 20
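Note: peptides expressed intracellularly from a pBAD plasmid library in pooled LB shake-flask culture, induced with 0.3% L-arabinose, DNA abundance read by NGS, three biological replicates, DESeq2 with apeglm shrinkage.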

Row | Sequence | shrunken log2 fold change
1 | RRIRDRPPRLPRPRPRPILDPRP | 0.0609
2 | RRIRQRPPRLPRPRPRPIFQPRP | -0.269
3 | RRIRARPPRLPRPRPRPVHTPRP | 0.375
4 | RRIRNRPPRLPRPRPRPSDYPRP | 0.075
5 | RRIRYRPPRLPRPRPRPGCTPRP | -0.0794
6 | RRIRVRPPRLPRPRPRPDPAPRP | 0.142
7 | RRIRLRPPRLPRPRPRPMVKPRP | -0.147
8 | RRIRERPPRLPRPRPRPAWCPRP | 0.238
9 | RRIRMRPPRLPRPRPRPWYGPRP | -0.0162
10 | RRIRNRPPRLPRPRPRPKFTPRP | -0.0624
11 | RRIRRRPPRLPRPRPRPPCDPRP | 1.03
12 | RRIRNRPPRLPRPRPRPTTFPRP | -0.337
13 | RRIRIRPPRLPRPRPRPMPPPRP | -0.0836
14 | RRIRYRPPRLPRPRPRPFEGPRP | -0.000989
15 | RRIRHRPPRLPRPRPRPYNDPRP | -0.0648
16 | RRIRWRPPRLPRPRPRPYSGPRP | -0.105
17 | RRIRVRPPRLPRPRPRPHVMPRP | -0.526
18 | RRIRNRPPRLPRPRPRPTPIPRP | 0.189
19 | RRIRGRPPRLPRPRPRPLREPRP | 1.85
20 | RRIRMRPPRLPRPRPRPNHQPRP | -0.105
21 | RRIRMRPPRLPRPRPRPMTYPRP | 0.157
22 | RRIRVRPPRLPRPRPRPAMGPRP | 0.34
23 | RRIRRRPPRLPRPRPRPFKRPRP | -2.89e-05
24 | RRIRRRPPRLPRPRPRPLIFPRP | -0.00389
25 | RRIRKRPPRLPRPRPRPGCRPRP | 0.654

Row | Sequence | shrunken log2 fold change
26 | RRIRKRPPRLPRPRPRPDAQPRP | 1.59
27 | RRIRARPPRLPRPRPRPPYKPRP | 0.0849
28 | RRIRARPPRLPRPRPRPQYYPRP | -0.452
29 | RRIRGRPPRLPRPRPRPRLGPRP | 0.799
30 | RRIRWRPPRLPRPRPRPHPQPRP | 0.309
31 | RRIRPRPPRLPRPRPRPTMCPRP | -0.0327
32 | RRIRTRPPRLPRPRPRPFICPRP | -0.292
33 | RRIRPRPPRLPRPRPRPHFIPRP | -0.468
34 | RRIRTRPPRLPRPRPRPGGMPRP | -0.117
35 | RRIRQRPPRLPRPRPRPYKMPRP | -0.292
36 | RRIRPRPPRLPRPRPRPRDVPRP | 0.0755
37 | RRIRGRPPRLPRPRPRPIDSPRP | 0.00395
38 | RRIRPRPPRLPRPRPRPKCEPRP | -0.187
39 | RRIRGRPPRLPRPRPRPWSFPRP | -0.113
40 | RRIRIRPPRLPRPRPRPVDNPRP | -0.0726
41 | RRIRWRPPRLPRPRPRPGGGPRP | 0.953
42 | RRIRNRPPRLPRPRPRPCQMPRP | -0.0139
43 | RRIRYRPPRLPRPRPRPPKSPRP | -0.0324
44 | RRIRVRPPRLPRPRPRPWCHPRP | -0.291
45 | RRIRWRPPRLPRPRPRPRMRPRP | 1.03
46 | RRIRGRPPRLPRPRPRPGPTPRP | 1.51
47 | RRIRVRPPRLPRPRPRPPFLPRP | 1.11
48 | RRIRHRPPRLPRPRPRPIAQPRP | -0.0267
49 | RRIRHRPPRLPRPRPRPNYMPRP | -0.0657
50 | RRIRERPPRLPRPRPRPKPDPRP | 0.0317

Row | Sequence | shrunken log2 fold change
51 | RRIRHRPPRLPRPRPRPLYWPRP | -0.276
52 | RRIRLRPPRLPRPRPRPCHNPRP | 0.0575
53 | RRIRHRPPRLPRPRPRPMIRPRP | -0.173
54 | RRIRTRPPRLPRPRPRPPCFPRP | 0.153
55 | RRIRYRPPRLPRPRPRPKEFPRP | -0.00973
56 | RRIRNRPPRLPRPRPRPAAWPRP | 0.0193
57 | RRIRIRPPRLPRPRPRPVEHPRP | 0.0873
58 | RRIRTRPPRLPRPRPRPDYKPRP | -0.303
59 | RRIRERPPRLPRPRPRPYTCPRP | -0.398
60 | RRIRRRPPRLPRPRPRPMWNPRP | 0.00386
61 | RRIRPRPPRLPRPRPRPCANPRP | 0.0366
62 | RRIRVRPPRLPRPRPRPCCYPRP | -0.272
63 | RRIRKRPPRLPRPRPRPYLDPRP | -0.0998
64 | RRIRCRPPRLPRPRPRPQKMPRP | -0.0362
65 | RRIRRRPPRLPRPRPRPSWSPRP | -0.116
66 | RRIRPRPPRLPRPRPRPRMEPRP | 0.197
67 | RRIRNRPPRLPRPRPRPCAIPRP | -0.0115
68 | RRIRPRPPRLPRPRPRPMELPRP | -0.00106
69 | RRIRVRPPRLPRPRPRPMFMPRP | -0.562
70 | RRIRWRPPRLPRPRPRPMEIPRP | -0.0287
71 | RRIRPRPPRLPRPRPRPSIAPRP | -0.131
72 | RRIRARPPRLPRPRPRPITHPRP | -0.045
73 | RRIRQRPPRLPRPRPRPRCTPRP | -0.172
74 | RRIRERPPRLPRPRPRPWKWPRP | -0.0653
75 | RRIRKRPPRLPRPRPRPMSHPRP | -0.0712

Row | Sequence | shrunken log2 fold change
76 | RRIRYRPPRLPRPRPRPFYYPRP | -1.18
77 | RRIRIRPPRLPRPRPRPACFPRP | 0.199
78 | RRIRRRPPRLPRPRPRPHYKPRP | -0.487
79 | RRIRSRPPRLPRPRPRPGRRPRP | 0.263
80 | RRIRQRPPRLPRPRPRPSKVPRP | -0.133
81 | RRIRQRPPRLPRPRPRPQDTPRP | -0.555
82 | RRIRIRPPRLPRPRPRPWSHPRP | -0.416
83 | RRIRQRPPRLPRPRPRPTFGPRP | 0.343
84 | RRIRERPPRLPRPRPRPEDNPRP | 0.0813
85 | RRIRMRPPRLPRPRPRPRTKPRP | 1.21
86 | RRIRCRPPRLPRPRPRPYLLPRP | -0.559
87 | RRIRLRPPRLPRPRPRPVSWPRP | 0.22
88 | RRIRKRPPRLPRPRPRPYVVPRP | -0.226
89 | RRIRGRPPRLPRPRPRPTDHPRP | 0.335
90 | RRIRGRPPRLPRPRPRPSECPRP | 0.519
91 | RRIRRRPPRLPRPRPRPVAMPRP | 0.342
92 | RRIRWRPPRLPRPRPRPLNEPRP | -0.0646
93 | RRIRKRPPRLPRPRPRPSSFPRP | 0.0223
94 | RRIRHRPPRLPRPRPRPWVSPRP | -0.683
95 | RRIRVRPPRLPRPRPRPDQTPRP | -0.002
96 | RRIRTRPPRLPRPRPRPTEMPRP | 0.3
97 | RRIRNRPPRLPRPRPRPNRTPRP | -0.0201
98 | RRIRGRPPRLPRPRPRPAAQPRP | 1.12
99 | RRIRTRPPRLPRPRPRPQRPPRP | 0.158
100 | RRIRERPPRLPRPRPRPYLMPRP | -0.696

Row | Sequence | shrunken log2 fold change
101 | RRIRVRPPRLPRPRPRPFQWPRP | -0.126
102 | RRIRARPPRLPRPRPRPCDDPRP | -0.0166
103 | RRIRRRPPRLPRPRPRPNLIPRP | -0.221
104 | RRIRLRPPRLPRPRPRPPPTPRP | 1.48
105 | RRIRMRPPRLPRPRPRPQPFPRP | 0.211
106 | RRIRHRPPRLPRPRPRPGIGPRP | -0.0787
107 | RRIRKRPPRLPRPRPRPVHAPRP | 0.464
108 | RRIRMRPPRLPRPRPRPKPLPRP | 0.603
109 | RRIRPRPPRLPRPRPRPMSPPRP | -0.194
110 | RRIRTRPPRLPRPRPRPWWHPRP | -0.279
111 | RRIRQRPPRLPRPRPRPDVLPRP | 0.0137
112 | RRIRKRPPRLPRPRPRPSIHPRP | -0.551
113 | RRIRQRPPRLPRPRPRPFLEPRP | -0.155
114 | RRIRRRPPRLPRPRPRPCASPRP | 0.0214
115 | RRIRPRPPRLPRPRPRPHHWPRP | -0.103
116 | RRIRNRPPRLPRPRPRPSSMPRP | -0.458
117 | RRIRGRPPRLPRPRPRPNGPPRP | -0.0411
118 | RRIRHRPPRLPRPRPRPRQTPRP | 0.0257
119 | RRIRTRPPRLPRPRPRPEGSPRP | 0.161
120 | RRIRCRPPRLPRPRPRPLWPPRP | 0.076
121 | RRIRERPPRLPRPRPRPHALPRP | -0.236
122 | RRIRTRPPRLPRPRPRPRHVPRP | 0.0629
123 | RRIRSRPPRLPRPRPRPVWFPRP | -0.121
124 | RRIRWRPPRLPRPRPRPIAWPRP | 0.713
125 | RRIRERPPRLPRPRPRPDMQPRP | -0.184

Row | Sequence | shrunken log2 fold change
126 | RRIRNRPPRLPRPRPRPVMHPRP | 0.077
127 | RRIRPRPPRLPRPRPRPKRHPRP | 0.267
128 | RRIRTRPPRLPRPRPRPLEMPRP | 0.0834
129 | RRIRCRPPRLPRPRPRPPTHPRP | 0.172
130 | RRIRLRPPRLPRPRPRPFHRPRP | -0.246
131 | RRIRRRPPRLPRPRPRPYIQPRP | -0.603
132 | RRIRSRPPRLPRPRPRPIPYPRP | -0.344
133 | RRIRKRPPRLPRPRPRPKTAPRP | 0.2
134 | RRIRPRPPRLPRPRPRPYFFPRP | -0.593
135 | RRIRTRPPRLPRPRPRPIRVPRP | -0.519
136 | RRIRLRPPRLPRPRPRPATWPRP | -0.125
137 | RRIRDRPPRLPRPRPRPEEPPRP | 2.06
138 | RRIRFRPPRLPRPRPRPIMPPRP | -0.127
139 | RRIRCRPPRLPRPRPRPDGGPRP | 0.196
140 | RRIRLRPPRLPRPRPRPMYHPRP | -0.493
141 | RRIRDRPPRLPRPRPRPQYCPRP | -0.207
142 | RRIRGRPPRLPRPRPRPQFPPRP | -0.0214
143 | RRIRWRPPRLPRPRPRPADMPRP | 0.0185
144 | RRIRGRPPRLPRPRPRPHRRPRP | 0.205
145 | RRIRFRPPRLPRPRPRPTMLPRP | -0.423
146 | RRIRFRPPRLPRPRPRPMWYPRP | -0.0081
147 | RRIRHRPPRLPRPRPRPLAVPRP | 0.0391
148 | RRIRSRPPRLPRPRPRPHINPRP | -0.607
149 | RRIRPRPPRLPRPRPRPPPPPRP | 0.85
150 | RRIRSRPPRLPRPRPRPNKAPRP | 0.0174

Source: the supplement of paper PMC9112550, “Optimization of the antimicrobial peptide Bac7 by deep mutational scanning” (BMC Biology, 2022)
